Measured values as given in article PMC5340378, “The DRF motif of CXCR6 as chemokine receptor adaptation to adhesion” (PLoS ONE, 2017).

How the values were obtained:
[1] = biological target: human CXCR6[DRF] (CXC-chemokine receptor 6, wild type with the DRF motif) (human, UniProt O00574 1-342); test: cell-based or functional assay
[2] = biological target: T1, human CXCR6[DRY] (DRF motif mutated to DRY) (human, UniProt O00574 1-342, DRF to DRY (F128^3.51)); test: cell-based or functional assay
T1 sequence (looked up): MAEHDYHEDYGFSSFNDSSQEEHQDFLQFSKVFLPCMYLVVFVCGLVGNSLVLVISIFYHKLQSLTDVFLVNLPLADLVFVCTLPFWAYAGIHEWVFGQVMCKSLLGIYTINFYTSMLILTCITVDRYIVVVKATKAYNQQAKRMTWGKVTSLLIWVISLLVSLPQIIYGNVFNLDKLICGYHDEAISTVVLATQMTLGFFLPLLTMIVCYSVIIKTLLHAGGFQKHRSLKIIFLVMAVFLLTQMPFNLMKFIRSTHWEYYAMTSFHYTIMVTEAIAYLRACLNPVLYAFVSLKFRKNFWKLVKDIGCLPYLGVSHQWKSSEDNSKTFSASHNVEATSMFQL

adhesion of THP-1 cells expressing the receptor to immobilized CXCL16-Fc for 30 min, normalized to cells adhering to anti-human-Fc [1]: ~4 fold
adhesion of THP-1 cells to immobilized CXCL16-Fc for 5, 15 and 30 min, CXCR6[DRF] cells compared to CXCR6[DRY] cells [1]: 2 fold
adhesion of THP-1 cells expressing the receptor to immobilized CXCL16-Fc for 30 min, normalized to cells adhering to anti-human-Fc [2]: ~4 fold
B1: human CXCL16-Fc fusion protein (Fc fusion, UniProt Q9H2A7 30-205, looked up)
chain: NEGSVTGSCYCGKRISSDSPPSVQFMNRLRKHLRAYHRCLYYTRFQLLSWSVCGGNKDPWVQELMSCLDLKECGHAYSGIVAHQKHLLPTSPPISQASEGASSDIHTPAQMLLSTLQSTQRPTLPVGSLSSDKELTRPNETTIHTAGHSLAAGPEAGENQKQPEKNAGPTARTSAT
